Test results taken from patent publication US20170190787A1 (INSERM INSTITUT NATIONAL DE LA SANT ET DE LA RECHERCHE M …, published 2017).

Tests used:
[1] = biological target: T1, EGFR fused to SNAP-tag, expressed on transfected HEK293T cells (UniProt P00533 25-1210, terbium cryptate donor fluorochrome (SNAP-Tb) covalently on the SNAP-tag); assay: time resolved fluorescence (HTRF) on EGFR-ST transfected HEK293T cells; apparent affinity
T1 construct: whole, on cells; also called EGFR-ST; ErbB1-ST; not shown: SNAP-tag and FLAG tag (Cisbio plasmid)

[2] = biological target: T1, EGFR fused to SNAP-tag, expressed on …; assay: HTRF on living cells; D4E in the presence of a large amount of monovalent D10 blocking the D10 epitope
[3] = biological target: T1, EGFR fused to SNAP-tag, expressed on …; assay: HTRF on living cells; D4E in the presence of a large amount of monovalent E10 blocking the E10 epitope

Row | Binder | Kd [1] [nM] | Kd [2] [nM] | Kd [3] [nM]
1 | biparatopic single domain antibody D2E (D10 - 2x(G4S) linker - E10) (bispecific antibody, also called bisdAb D2E) EVQLQESGGGLVQAGGSLRLSCAVSISRTIFSLYAMEWYRQPPGKQRDLVARIYRSGDTNYADSVKGRFTISRDNAKNTVYLQMNSLKPEDTGVYYCNSPAQDWPWGQGTQVTVSSAAAGGGGSGGGGSMAQVQLQESGGGLAQAGGSLRLSCAASGRTLSSYDMGWFRQAPGKEREFVTAINWGDLSTYYADSVKGRFTISRDNAKNTVYLQMNSLKPEDTAVYYCAARLRYTVSDPIFSRPDRYNYWGQGTQVTVSSAAAEQKLISEEDLNGAAHHHHHHGS | 6 |  | 
2 | biparatopic single domain antibody D6E (D10 - 6x(G4S) linker - E10) (bispecific antibody, also called bisdAb D6E) EVQLQESGGGLVQAGGSLRLSCAVSISRTIFSLYAMEWYRQPPGKQRDLVARIYRSGDTNYADSVKGRFTISRDNAKNTVYLQMNSLKPEDTGVYYCNSPAQDWPWGQGTQVTVSSAAAGGGGSGGGGSGGGGSGGGGSGGGGSGGGGSMAQVQLQESGGGLAQAGGSLRLSCAASGRTLSSYDMGWFRQAPGKEREFVTAINWGDLSTYYADSVKGRFTISRDNAKNTVYLQMNSLKPEDTAVYYCAARLRYTVSDPIFSRPDRYNYWGQGTQVTVSSAAAEQKLISEEDLNGAAHHHHHHGS | 6 |  | 
3 | biparatopic single domain antibody D4E (D10 - 4x(G4S) linker - E10) (bispecific antibody, also called bisdAb D4E) EVQLQESGGGLVQAGGSLRLSCAVSISRTIFSLYAMEWYRQPPGKQRDLVARIYRSGDTNYADSVKGRFTISRDNAKNTVYLQMNSLKPEDTGVYYCNSPAQDWPWGQGTQVTVSSAAAGGGGSGGGGSGGGGSGGGGSMAQVQLQESGGGLAQAGGSLRLSCAASGRTLSSYDMGWFRQAPGKEREFVTAINWGDLSTYYADSVKGRFTISRDNAKNTVYLQMNSLKPEDTAVYYCAARLRYTVSDPIFSRPDRYNYWGQGTQVTVSSAAAEQKLISEEDLNGAAHHHHHHGS | 6 | 100 | 22
